Measurements published in the supplement of paper PMC12636428.

test system: Saccharomyces cerevisiae; assay: transcriptional activation domain activity (GFP:mCherry ratio, weighted mean of sorted bins, harmonized to initial dataset scale) (arbitrary fluorescence ratio units); higher = stronger transcriptional activation; settings: beta-estradiol 1 µM; induction time 4 h
How it was run: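 The activation activity of each tile is the read-weighted mean of bin median fluorescence, averaged across its barcodes and mapped linearly onto the scale of the initial dataset. Tiles were fused to an estradiol-inducible synthetic transcription factor, barcoded, and integrated at URA3 in yeast diploids carrying a GFP reporter. Induction used 1 uM beta-estradiol in SC for 4 hours at 30 °C, after which cells were sorted into 8 GFP:mCherry bins, and any tile with fewer than 50 reads was dropped.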

Going from “ELGLGSWWVFIVLGHTSVLLELAPRYSFALYFLPVFLLTVTVVSFFFAFVLYL” to “ELGLLADIMQHEIQGFWGLIKILAKRRKNKYHANMADVNMRSVFQKAFTSWMM”, the “transcriptional activation domain activity” value rises from 41100 to 44500.

Compared with “ELGSFRLLSFRVWCLLGTGSFWGLLYTAIAKMDGYTFGFLLQAHHVLKLLLVS”, “ELILVQDLCGTFCCSMQFLVLMDLLGNVVLPSSVIFFYYLIFAYFFGYPVAMP” is higher in “transcriptional activation domain activity” value: 54400 for the first, 60100 for the second.

Going from “ELKDGGGGESSPIEIADRVVVEECDMEKVALDRTLGRLWRGWRKRLRSPATPV” to “ELKEGDPKVCAGKAVNEKGEVVDKDGNVIGKVDVVPGEAAFEAMKALKERLGE”, the “transcriptional activation domain activity” value falls from 65100 to under 6570.

First: ELKKFADGVDRERKERAKSANGCCGFCGREEEALPKCGRCKETRYCSPSVRAC
Second: ELLCIDRETGETRFVEPKVPDGISLRNFGIQVVSSCVLLLLVSLRPPHVLCAC
The “transcriptional activation domain activity” value of the first is lower: 33000 for the first, 53600 for the second.

First: ELLDELLARNKSLVILVLDQIFMFILAWNRDYDRYDIQKIIGLYYIQSNVSLF
Second: ELLESTEREGGRGLRPAKAEVREGGLDGVVGGLEDLRGGRVSGRKLVYRVGTE
The “transcriptional activation domain activity” value of the first is higher: 52100 for the first, 35700 for the second.

Compared with “ELLLLWYIYFLGIQYAQDFCQYKKMLILTEDTMWGWDLYSFYNSIVFHGTGVP”, “ELLNAIVLVHMKLETGDLPPIVSRHIGRFAEQVLSKTPIHLIVTTSFRTLHKI” is lower in “transcriptional activation domain activity” value: 75000 for the first, 73400 for the second.

Compared with “ELLRVLNKAHIYLMCLYLFSGLDAHMGILRDFKLIDSHYRLSLHTLICVLVSW”, “ELLSVLIPPSPAETRGPTTLSTSPSFNEHGVVAEASFLSSILELGIKHPKSNN” is lower in “transcriptional activation domain activity” value: 71000 for the first, 27900 for the second.

Going from “ELLVLLDQHWNYSRLRYPICFLSRTASEMLTFVRSMMEWLGGTVSKEDVGEDG” to “ELLYKSYLCHLFSFFFPFPFYNIFNIIVHLFFFFLSFLSFFYYFNIYSCLYIY”, the “transcriptional activation domain activity” value rises from 25800 to 69800.

First: ELNEYLDLFKNNFLPHFPIIHPSLLDLDLDSLQRYTNEDGYDDAENAQLFDRL
Second: ELPKKCDDKYWEHGDNYQEAIRQLPTKPSLVEFFNCLITLNRILALTLRMLYS
The “transcriptional activation domain activity” value of the first is higher: 117000 for the first, 55200 for the second.

Compared with “ELQKLLKFKVDDKKYPRFSPMFYPNNVKKDKLLFRVRLLVNILRVVLLGPSSL”, “ELRNHMSAIIDICWGACGTYKGVELWLEWDRNDNVPFHDSLWRVVRFVIFVNH” is higher in “transcriptional activation domain activity” value: 36100 for the first, 63200 for the second.

Compared with “ELSHPSALFCYILFRLFPIFMYLFGHLVLMLVTQESWFILYFIVLILLVAADF”, “ELVVLRFWSLKAIVFFFVLVLQTVSLGAGKGGGLYKDLFTLFLHILCILELCC” is higher in “transcriptional activation domain activity” value: 60500 for the first, 61300 for the second.

Compared with “ELWHSLYMLFKTYWCRLLHYALSLVLLCSFIVRLVSVIAILDSKRCGLTLFAA”, “ELYGKPSMEAIFLLFAHYLYAGACAKGEHLIITTWDMYYEKLGFMLIFWNMAG” is lower in “transcriptional activation domain activity” value: 73200 for the first, 64300 for the second.

First: ELYIYSTVRYSFSDYLIPSGYNVCAFLLSCLMFNGDLMVELVLVMRSWFKRIL
Second: EMAVACISVLILIGYNTIILYVYPLYPTRSPLRLSETYINHLLSNFLWWFIMF
The “transcriptional activation domain activity” value of the first is higher: 66500 for the first, 59100 for the second.

First: EMGLSTAPGHQTAEFTITGIGLILKTLWLCADLITFLLSLQRLIFHALVLLFS
Second: EMGTLAALLWQPEIRDLTTYLRDIRVAVANVLDVFAMIEPSRLIAKIKIHLLA
The “transcriptional activation domain activity” value of the first is higher: 64300 for the first, 43100 for the second.

Going from “EMIMGFFFKNIVWTLTLFWYQIFCQFNGSMMFDYALVTLFNLVFTSLPIMCMG” to “EMLSASKGRKKARMEEEDEDEWAGDGASKAKAKGKKAAKKPAKARAPKGKAAA”, the “transcriptional activation domain activity” value falls from 52100 to 37400.

First: EMRHVILIVFIGMVGCWISQWVFWVGFLKLYSGQGYCPPRLGTLALNWILFSV
Second: EMVDIFAHMDNIERLIAPFSVLAEHEVFHFNMLRIYYLTLRLLVLLHGVIEVK
The “transcriptional activation domain activity” value of the first is lower: 43200 for the first, 75200 for the second.

Compared with “EMVKTESVATSSTTTTKTESEGAVVKEEKMASPSPTRVKVEKVEVKRVPTISL”, “ENAGNENAVDVENAGNENTAPEAKGKKNKGNAAANENAAGNAQAGEAGQVAAN” is higher in “transcriptional activation domain activity” value: 15700 for the first, 47200 for the second.

Going from “ENASEPQKQEAEEKPKSTTAASTSVPRSSKPSVEAKPVRKSRRTGAQRRAPSQ” to “ENDGEEVEGEEKESSQGAGGLMGRFTKETDDVRLGASQNIGLVLQYLTSFIAC”, the “transcriptional activation domain activity” value falls from 38800 to 17000.

Going from “ENEDDAFGALNYNSLDATTMSAFDNNVDPFNILKSSPAQDQQFIKPSMMLSDN” to “ENEQDSLALDDLDRAFELVEGMDMDWMMPSHAHHSPATTATIKPRLLYSPLIH”, the “transcriptional activation domain activity” value falls from 77200 to 74200.

Going from “ENGRNLLRELLIFVAAWDLREEELYFKFMVKILESILVNGYLPYAYHAFREYD” to “ENHPPGVAAQILIARISWILWHSVEQIRITVWVVGRKFMMVLLQGTVPRISVR”, the “transcriptional activation domain activity” value rises from 62000 to 71600.

First: ENKKEEPKSAKPTSKKAEKPVSKKADAETGEKRAADETKPAEKPASKKAKTDA
Second: ENLRTVGLGSVRDICLRNASEQAILTIIDFPLRVLAMIAQIRTGLWVRNGFAI
The “transcriptional activation domain activity” value of the first is lower: 30800 for the first, 53000 for the second.

Going from “ENNDQFNNKTRKRKRRMSSTSSTSKASRKNSISRKNSAVTTAPAQKDDVENNK” to “ENNNYAVDLAKSNGMHIVGIQGSDIVDGRKTLVLGLVWQLMRLSIYKTLSSLT”, the “transcriptional activation domain activity” value rises from under 6570 to 41900.

Going from “ENNVPLLERFREFPWLLSDLIFPFMMEYMLVWYLIWETILNILAELTYFADRS” to “ENSEDALHNSETMDLLGTLSHGNDFALEYNFDFTLLNEIDMLIGGNTNDGLSK”, the “transcriptional activation domain activity” value rises from 27300 to 101000.

Going from “ENTRHRIFSIFRKSDLGLYALRGSQTLMNYSRVLGLLIRKWVITALRVCMWLG” to “ENVRGIMTENIERVLERGERIDLLVDKTGRLNVNAGEFRRRSRGLRRRMWWKN”, the “transcriptional activation domain activity” value falls from 53000 to 37700.

Compared with “ENVYRPFLMVYTEAIILIFSFYLIILYIVLFTFLEGYPYIFSRVYGISDSLTF”, “EPAAEGAAGADKPAEEAKPAEDKPAETKPEETAEGAKTEETPAPAESAAAPAA” is lower in “transcriptional activation domain activity” value: 40900 for the first, 37800 for the second.

Going from “EPAEEDSKPEEPAAAAEPEAEVKEEPAEEPAAPAEPKAEAEPEKADETPAAEA” to “EPAEEEEEEDDDDEDDPEVRRKEELRARMAKMSAGMGGMGGMMNPFAAPVAPG”, the “transcriptional activation domain activity” value rises from 24000 to 62200.

First: EPAETPAETPAPVEPVVEEKKEETPAPVKETPAPTPNPAAAPAPQQQQPAAAK
Second: EPAVVKAVAAVAAQDGGDGREEHRREKKKKKKKREKREKRELVAGQEGGGGEG
The “transcriptional activation domain activity” value of the first is higher: 26400 for the first, under 6570 for the second.

First: EPEQVEAVVEVEEKQEEVKPVEEEIKVEQPVVEQQQEEPTPVVSQVPASTPLP
Second: EPERKQSRRRQSRGRGRKGVADSDTESVPRSDVSASGGRRNRQRQRQKGGKQQ
The “transcriptional activation domain activity” value of the first is lower: under 6570 for the first, 48900 for the second.

Compared with “EPESKPAPARGAQPAQRGNFRGGRGGHRGARGGRGRGGYQERPRRQEEEKPTK”, “EPFHLQHQSNHVYGKIVIGDSLMDEWFIVYLLRELSLWLDHLVIRYIYRRLMI” is higher in “transcriptional activation domain activity” value: 9620 for the first, 59900 for the second.

Compared with “EPGEEYHHSNGTNTDNNETTGADDTDDNNNNNNNNNKNGNNSSSTINNNNNNY”, “EPHNDIILDLLFTLAYWHALAKLRLHTDFTLSKLEEVTMFLGRQLRYLRRVTC” is higher in “transcriptional activation domain activity” value: 35700 for the first, 51800 for the second.

Compared with “EPIQNEIAKLFHSGGDSVVDILFSQTSATEFVTVGGTGNVYHWDMEYSFSRND”, “EPKAEEPAPRKSDEGQGKDKEQPKEIKEEEQQRGRRPDKGKARVVVQGFAAEE” is lower in “transcriptional activation domain activity” value: 67800 for the first, 23200 for the second.

Compared with “EPKKAKIGAPKRKKKEVIEDAEAGAGAETEEGEAPPKKKRGGRKAKPAKEEPV”, “EPLFLEAQLIHMINFFETFFHKYETSIDRHNLIRHNALEKYYQGINCGRHMLC” is higher in “transcriptional activation domain activity” value: 15600 for the first, 95700 for the second.

Going from “EPPPPPPEPEPQPPPKAEPPPEPEPEPVPKAEAPPPPPREEPPPPKKAPPPPK” to “EPQPPPKAEPPPEPEPEPVPKAEAPPPPREEPPPPKKAPPPPKPEPTPAPAPT”, the “transcriptional activation domain activity” value falls from 44000 to 38600.

First: EPRISEGGLAALVASSPCKPAAVPILLTGPPKQAKACSSRLTGTHRPASNCKS
Second: EPRQTGDSRSQSSGNTGENEEDIAFASGLNGGTFDSMLEALPDDLYFTDFVSP
The “transcriptional activation domain activity” value of the first is lower: 36500 for the first, 88800 for the second.

First: EPRSLPASDLNKITLAPPNEESRMPKSMLELTSYSSDLPPELVDIIPKTDLTV
Second: EPSRAGTPAPAPAAGEKKVGEAEGKVAEKAEGEGEGGKGAGEENNGKGKESVK
The “transcriptional activation domain activity” value of the first is higher: 58300 for the first, 19100 for the second.

First: EPVEAEAQAEAEAETKEPETKSEETAAASTETEKVEDKREATTATEKAQAAAS
Second: EQAAKKKTAAPAAAPKAEAAKAPEVKAEAAAPAPEPEKPAAGGKKKKLNPALL
The “transcriptional activation domain activity” value of the first is lower: under 6570 for the first, 52300 for the second.

Going from “EQAEKEAAAEKATPKEAAAKEESPKEESPKEESPEKKEVKKPVKKTPTKKNAK” to “EQAPREGQGQGRGRGGRPRGEGRGRGGRGRGRGAPAGNGAAEAAATTAPKSTE”, the “transcriptional activation domain activity” value falls from 27100 to 21700.

Compared with “EQDAFFPWLWIDPQFPEDPVLGSWDTFLGDFNCGMPLDDLDFALDMLQYSVGA”, “EQDNVDSTQQSSTGRVKRSREDSASGERLRSTSRSRSKSPSGRHKRSRRHRRS” is lower in “transcriptional activation domain activity” value: 161000 for the first, 36100 for the second.

Compared with “EQDSWNAQLDFFNHIFYTQLYPAYDLPKKLQEDTELETEQENQMLNQVGNINY”, “EQEEEEEEEEAKQPKKKRAKKWFEDESSGDEDTGDRKKKKRKARAAAAAAAAA” is lower in “transcriptional activation domain activity” value: 109000 for the first, 41300 for the second.

First: EQEVQEERARTGTKGRKRALDDDAAKEEKEEKKEKPEKKEKATKSGKATSAAS
Second: EQFVLRDCGLLLWIDLRFLCHCARICLSACLDNYVYGVANITGKLVRFWGLGV
The “transcriptional activation domain activity” value of the first is lower: 20800 for the first, 63400 for the second.

Going from “EQGDTPAKKKARKGASGTGRKRKTVGDDEAAGGNEQEGQPKKKARREKAAATE” to “EQGQNLQGLLEFMCFEVGPMFLDLIIAFVYVYTLFDLYMSMILLFVGLAYVWI”, the “transcriptional activation domain activity” value rises from 29300 to 33200.

“EQKVPEGVKDSWDASSDEEEEETAVKPSKPAAAANGKSPSAPAKAATHAKPAP” was tested, and the “transcriptional activation domain activity” value was 23500.
